Results on 91 sequences are retold here after the supplement of paper PMC9112550, “Optimization of the antimicrobial peptide Bac7 by deep mutational scanning” (BMC Biology, 2022).
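Also: peptides expressed intracellularly from a pBAD plasmid library in pooled LB shake-flask culture, induced with 0.3% L-arabinose, DNA abundance read by NGS, three biological replicates, DESeq2 with apeglm shrinkage.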

In this data set the test system is Escherichia coli TOP10. As to the kind of experiment: shrunken log2 fold change of peptide-encoding DNA abundance (4.5 h post-induction vs induction); higher = less antimicrobial activity (less host growth inhibition). Conditions: time post-induction: 4.5 h; library: site-saturation at positions 5, 18, 19, 20.
As for RRIRWRPPRLPRPRPRPKAQPRP, the “shrunken log2 fold change” value was found to be 0.0185.
As to RRIRHRPPRLPRPRPRPGNTPRP, the “shrunken log2 fold change” value was -0.319.
With RRIRTRPPRLPRPRPRPVKAPRP the figure was 0.0375; with RRIRRRPPRLPRPRPRPSQFPRP, 0.0893.
In the case of RRIRDRPPRLPRPRPRPYPDPRP, the “shrunken log2 fold change” value is -0.27.
With RRIRARPPRLPRPRPRPWNEPRP the figure was -0.19; with RRIRNRPPRLPRPRPRPRCWPRP, 0.108; with RRIRHRPPRLPRPRPRPLAKPRP, 0.107.
The same measure for RRIRCRPPRLPRPRPRPYEMPRP: -0.151.
With RRIRCRPPRLPRPRPRPRKQPRP the figure was 0.284; with RRIRDRPPRLPRPRPRPHVFPRP, -0.0358; with RRIRSRPPRLPRPRPRPTKRPRP, 0.294.
On to RRIRSRPPRLPRPRPRPTHRPRP, for which the “shrunken log2 fold change” value turned out to be 0.0995.
The same measure for RRIRKRPPRLPRPRPRPKNTPRP: -0.0285; for RRIRGRPPRLPRPRPRPPFMPRP: 0.557.
With RRIRQRPPRLPRPRPRPWVLPRP, the “shrunken log2 fold change” value was 0.0639.
The same measure for RRIRIRPPRLPRPRPRPYRRPRP: -0.648; for RRIRRRPPRLPRPRPRPDEKPRP: 0.135; for RRIRMRPPRLPRPRPRPIFGPRP: 0.0873.
With RRIRFRPPRLPRPRPRPYSPPRP the figure was -0.324; with RRIRVRPPRLPRPRPRPRCKPRP, 0.039.
Turning to RRIRKRPPRLPRPRPRPTMIPRP, the “shrunken log2 fold change” value was -0.0569.
As to RRIRARPPRLPRPRPRPCISPRP, the “shrunken log2 fold change” value amounted to 0.0706.
With RRIRLRPPRLPRPRPRPLLCPRP the figure was -0.0707.
Take RRIRIRPPRLPRPRPRPTKFPRP: the “shrunken log2 fold change” value was -0.164.
Turning to RRIRDRPPRLPRPRPRPYYWPRP, the “shrunken log2 fold change” value was -0.184.
With RRIRLRPPRLPRPRPRPENWPRP the figure was 0.046; with RRIRDRPPRLPRPRPRPIFFPRP, 0.0831; with RRIRTRPPRLPRPRPRPWPCPRP, -0.0128.
For RRIRCRPPRLPRPRPRPCWQPRP, the “shrunken log2 fold change” value was -0.0116.
With RRIRERPPRLPRPRPRPAEDPRP the figure was 0.0107; with RRIRQRPPRLPRPRPRPHSIPRP, 0.0425.
For the sequence RRIRHRPPRLPRPRPRPDQAPRP, the “shrunken log2 fold change” value is 0.106.
With RRIRKRPPRLPRPRPRPPWFPRP, the “shrunken log2 fold change” value is 0.309.
Regarding RRIRDRPPRLPRPRPRPMLQPRP, the “shrunken log2 fold change” value is 0.0454.
On to RRIRLRPPRLPRPRPRPKQIPRP, for which the “shrunken log2 fold change” value is 0.0389.
The same measure for RRIRWRPPRLPRPRPRPNLIPRP: 0.0144; for RRIRLRPPRLPRPRPRPNVCPRP: -0.0138.
The same measure for RRIRKRPPRLPRPRPRPFSCPRP: -0.122; for RRIRFRPPRLPRPRPRPHYVPRP: -1.78; for RRIRTRPPRLPRPRPRPPREPRP: 0.141.
The same measure for RRIRLRPPRLPRPRPRPPTMPRP: 0.266; for RRIRHRPPRLPRPRPRPIFCPRP: -0.184; for RRIRDRPPRLPRPRPRPDDTPRP: 0.336.
In the case of RRIRCRPPRLPRPRPRPAHCPRP, the “shrunken log2 fold change” value worked out at 1.77.
With RRIRCRPPRLPRPRPRPGWCPRP the figure was -0.0717; with RRIRWRPPRLPRPRPRPRMSPRP, 0.139.
With RRIRIRPPRLPRPRPRPPHKPRP the figure was -0.0846.
With RRIRCRPPRLPRPRPRPLMNPRP the figure was -0.645; with RRIRMRPPRLPRPRPRPKHPPRP, 0.612; with RRIRARPPRLPRPRPRPFCRPRP, 0.211.
RRIRARPPRLPRPRPRPHYNPRP: the “shrunken log2 fold change” value was -0.467.
The same measure for RRIRHRPPRLPRPRPRPPSQPRP: -0.232; for RRIRRRPPRLPRPRPRPKPIPRP: 0.357; for RRIRYRPPRLPRPRPRPDKDPRP: -0.151.
The same measure for RRIRKRPPRLPRPRPRPPSHPRP: 0.543.
The same measure for RRIRERPPRLPRPRPRPGTQPRP: -0.0335; for RRIRIRPPRLPRPRPRPPRLPRP: 0.256.
On to RRIRQRPPRLPRPRPRPQLCPRP, for which the “shrunken log2 fold change” value is -0.0247.
As for RRIRWRPPRLPRPRPRPHGQPRP, the “shrunken log2 fold change” value is -0.0861.
The same measure for RRIRCRPPRLPRPRPRPPKWPRP: 0.447; for RRIRDRPPRLPRPRPRPCLWPRP: 0.218; for RRIRPRPPRLPRPRPRPERWPRP: 0.56.
With RRIRPRPPRLPRPRPRPRMIPRP the figure was 0.0799.
With RRIRERPPRLPRPRPRPIFSPRP the figure was 0.0654.
As for RRIRGRPPRLPRPRPRPMPQPRP, the “shrunken log2 fold change” value amounted to 0.255.
RRIRCRPPRLPRPRPRPHWCPRP: the “shrunken log2 fold change” value was -0.155.
Turning to RRIRIRPPRLPRPRPRPVNNPRP, the “shrunken log2 fold change” value is -0.272.
With RRIRVRPPRLPRPRPRPPDGPRP the figure was 0.422; with RRIRKRPPRLPRPRPRPACEPRP, 0.168.
With RRIRWRPPRLPRPRPRPMDCPRP the figure was -0.0839; with RRIRRRPPRLPRPRPRPHPSPRP, -0.0167; with RRIRERPPRLPRPRPRPSYYPRP, -0.126.
RRIRARPPRLPRPRPRPKNAPRP: the “shrunken log2 fold change” value was determined as 0.323.
Take RRIRPRPPRLPRPRPRPQIKPRP: the “shrunken log2 fold change” value is -0.282.
With RRIRQRPPRLPRPRPRPLNPPRP the figure was -0.303; with RRIRFRPPRLPRPRPRPEQDPRP, 1.57; with RRIRPRPPRLPRPRPRPHFCPRP, -0.353.
The same measure for RRIRVRPPRLPRPRPRPIVRPRP: -0.0635; for RRIRMRPPRLPRPRPRPLMVPRP: 0.396.
The same measure for RRIRFRPPRLPRPRPRPHPPPRP: 1.27; for RRIRVRPPRLPRPRPRPVCQPRP: 0.0508; for RRIRRRPPRLPRPRPRPSEWPRP: -0.15.
In the case of RRIRQRPPRLPRPRPRPERAPRP, the “shrunken log2 fold change” value is 0.53.
The same measure for RRIRIRPPRLPRPRPRPFCSPRP: -0.426; for RRIRVRPPRLPRPRPRPSVPPRP: -0.165.
In the case of RRIRARPPRLPRPRPRPGSEPRP, the “shrunken log2 fold change” value is 0.0951.
With RRIRKRPPRLPRPRPRPILAPRP the figure was 0.0492; with RRIRDRPPRLPRPRPRPKRPPRP, 0.449; with RRIRCRPPRLPRPRPRPFKTPRP, -0.478.
Take RRIRMRPPRLPRPRPRPPPQPRP: the “shrunken log2 fold change” value was 1.79.
